Test results taken from patent publication US6534640B1, “Methods and compositions to alter the cell surface expression of phosphatidylserine and other clot-promoting plasma membrane phospholipids” (Blood Center Research Foundation, priority 1996, dated 2003).

T1: mouse PL scramblase (Mus musculus, UniProt Q9DCW2)
T1 construct: made in house; host or cells: E. coli TB1 (pMAL-C2)
T1 sequence (Q9DCW2 1-307): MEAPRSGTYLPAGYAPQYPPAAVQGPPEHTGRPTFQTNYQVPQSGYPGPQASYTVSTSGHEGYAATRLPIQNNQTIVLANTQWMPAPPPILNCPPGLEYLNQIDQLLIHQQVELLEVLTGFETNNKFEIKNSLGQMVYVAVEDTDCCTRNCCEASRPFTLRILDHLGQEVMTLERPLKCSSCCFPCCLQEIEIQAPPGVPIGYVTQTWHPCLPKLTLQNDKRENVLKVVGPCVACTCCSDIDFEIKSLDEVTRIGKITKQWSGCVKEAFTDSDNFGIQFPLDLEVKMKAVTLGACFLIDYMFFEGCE


Legend:
[1] = system: human PL scramblase; experiment: PL scramblase activity: Ca2+-dependent transbilayer movement of NBD-PC in reconstituted PC/PS proteoliposomes; format: biochemical; conditions: for apparent avidity for Ca2+ of mutant human PL scramblase: activity as function of external free [Ca2+]; for PL scramblase function of Ala-substituted mutants of the EF-hand loop vs wild type: mutant human PL scramblase, 2 mM CaCl2
Description: Reconstitution of PL scramblase or scramblase fusion protein into proteoliposomes. Reconstitution and functional activity were performed essentially as previously described (F. Bassé, et al., J. Biol. Chem. 271:17205-17210, 1996; J. G. Stout, et al., J. Clin. Invest. 99:2232-2238, 1997). Briefly, a mixture of PC and PS (9:1 molar ratio) was dried under a stream of nitrogen and resuspended in 100 mM Tris, 100 mM KCl, 0.1 mM EGTA, pH 7.4 (Tris buffer). Protein samples to be reconstituted were added to the liposomes at a final lipid concentration of 4 mg/ml in the presence of 60 mM OG, and dialyzed overnight at 4° C. against 200 vol of Tris buffer containing 1 g/L Bio-Beads SM-2. To liberate PL scramblase from MBP, the proteoliposomes were incubated 3 h at room temperature in the presence of 1/40 (w/w) factor Xa. The digestion was terminated by addition of 100 μM Glu-Gly-Arg chloromethyl ketone. Completeness of the digest was monitored by SDS-PAGE. Following dialysis, the proteoliposomes were labeled in the outer leaflet by addition of 0.25 mol % fluorescent NBD-PC (in dimethyl sulfoxide, final solvent concentration 0.25%).
PL Scramblase activity. Scramblase activity was measured as previously described (F. Bassé, et al., supra, 1996; J. G. Stout, et al., supra, 1997 and in U.S. Ser. No. 08/790,186). Routinely, proteoliposomes labeled with NBD-PC were incubated for 2 hours at 37° C. in Tris buffer in the presence or absence of 2 mM CaCl2. Proteoliposomes were diluted 25-fold in Tris buffer containing 4 mM EGTA and transferred to a stirred fluorescence cuvet at 23° C. Initial fluorescence was recorded (SLM Aminco 8000 spectrof luorimeter; excitation at 470 nm, emission at 532 nm), 20 mM dithionite was added, and the fluorescence continuously monitored for a total of 120 seconds. The difference in non-quenchable fluorescence observed in presence vs. absence of CaCl2 Was attributed to Ca^2+-induced change in NBD-PC located in the outer leaflet (F. Bassé, et al., supra, 1996; J. G. Stout, et al., supra, 1997; J. C. McIntyre and R.G. Sleight, Biochemistry 30:11819-11827, 1991). Ionized [Ca^2+] was calculated using FreeCal version 4.0 software (generously provided by Dr. Lawrence F. Brass, University of Pennsylvania, Philadelphia, Pa.).
(§1) Reconstitution and Functional Activity of PL Scramblase: Reconstitution, removal of MBP, and functional assay of PL scramblase were performed as previously described (F. Bassé, et al., J. Biol. Chem. 271:17205-17210, 1996; Q. Zhou, et al., supra, 1997; J. G. Stout, et al., J. Clin. Invest. 99:2232-2238, 1997). Routinely, 420 pmoles of protein were reconstituted with 1 μmol of PL. To remove MBP, proteoliposomes were incubated 3 hours at room temperature with 1/40 (w/w) factor Xa. The digest was terminated by addition of 100 μM Glu-Gly-Arg chloromethyl ketone. Proteoliposomes labeled with NBD-PC were incubated for 2 hours at 37° C. in Tris buffer in the presence or absence of CaCl2 as indicated in figure legends and diluted 25-fold in Tris buffer containing 4 mM EGTA. Initial fluorescence was recorded (SLM Aminco 8000 spectrofluorimeter; excitation at 470 nm, emission at 532 nm), 20 mM dithionite was added, and the fluorescence was continuously monitored for a total of 120 seconds. Scramblase activity was calculated according to the difference in non-quenchable fluorescence observed in presence vs absence of CaCl2. Ionized [Ca^2+] was calculated using FreeCal version 4.0 software (generously provided by Dr. Lawrence F. Brass, University of Pennsylvania, Philadelphia, Pa.).
Mutagenesis of PL Scramblase: Human PL scramblase amino acid residues in EF-hand Ca^2+-binding motif at positions of Asp^273, Asp^275, Phe^277, Ile^279, Phe^281 and Asp^284 were mutated to Ala with oligonucleotide-directed mutagenesis by two rounds of PCR. […]

[2] = target: T1, mouse PL scramblase; experiment: PL scramblase activity of recombinant mouse protein in reconstituted PC/PS proteoliposomes; format: biochemical; conditions: 420 pmoles protein, 1 μmol PL
Description: Expression and Purification of Mouse PL Scramblase-MBP Fusion Protein: Mouse PL scramblase was expressed as fusion protein with MBP in E. coli TB1 and purified on amylose resin as previously described for human PL scramblase (Q. Zhou, et al., J. Biol. Chem. 272:18240-18244, 1997). The purified fusion protein was centrifuged at 106,000×g for 1 hour at 4° C. to remove aggregated protein.
as §1
Functional Activity of Recombinant Mouse PL Scramblase. In order to confirm that the cDNA identified as mouse PL scramblase encodes a protein of similar function to that identified in human, the human and mouse proteins were each expressed in E. coli, purified, and reconstituted in proteoliposomes for measurement of PL mobilizing activity. Mouse or human PL scramblase-MBP fusion protein (420 pmoles) was reconstituted into PC/PS liposomes (1 μmol total PL), respectively, MBP was removed by digestion of the proteoliposomes with factor Xa, and PL scramblase activity was determined as described under “Experimental Procedures” and plotted as a function of external free [Ca^2+]. The results of this experiment indicate that recombinant mouse PL scramblase mediated a Ca^2+-dependent transbilayer movement of membrane PL with a specific activity and affinity for Ca^2+ indistinguishable from that observed for the recombinant human protein.

| apparent avidity for Ca2+ of mutant human PL scramblase [1] | PL scramblase function of Ala-substituted mutants of the EF-hand loop vs wild type [1] | affinity for Ca2+ compared with recombinant human protein [2] | affinity for Ca2+ compared with recombinant human protein ([2]; listed as murine PL scramblase) | Molecule | specific activity (Ca2+-dependent transbilayer movement of membrane PL) compared with recombinant human protein [2] | specific activity (Ca2+-dependent transbilayer movement of membrane PL) compared with recombinant human protein ([2]; listed as murine PL scramblase) |
| --- | --- | --- | --- | --- | --- | --- |
| significant reduction | complete inactivation |  |  | Asp275: Mutant human PL scramblase with Ala substitution at Asp275 (EF-hand loop position 3) (protein, UniProt O15162 1-318, looked up, variant D275A) Phospholipid scramblase 1: MDKQNSQMNASHPETNLPVGYPPQYPPTAFQGPPGYSGYPGPQVSYPPPPAGHSGPGPAGFPVPNQPVYNQPVYNQPVGAAGVPWMPAPQPPLNCPPGLEYLSQIDQILIHQQIELLEVLTGFETNNKYEIKNSFGQRVYFAAEDTDCCTRNCCGPSRPFTLRIIDNMGQEVITLERPLRCSSCCCPCCLQEIEIQAPPGVPIGYVIQTWHPCLPKFTIQNEKREDVLKISGPCVVCSCCGDVDFEIKSLDEQCVVGKISKHWTGILREAFTDAANFGIQFPLDLDVKMKAVMIGACFLIDFMFFESTGSQEQKSGVW |  |  |
| significant reduction | partial loss of function |  |  | Asp273: Mutant human PL scramblase with Ala substitution at Asp273 (EF-hand loop position 1) (protein, listed as Homo sapiens) MDKQNSQMNASHPETNLPVGYPPQYPPTAFQGPPGYSGYPGPQVSYPPPPAGHSGPGPAGFPVPNQPVYNQPVYNQPVGAAGVPWMPAPQPPLNCPPGLEYLSQIDQILIHQQIELLEVLTGFETNNKYEIKNSFGQRVYFAAEDTDCCTRNCCGPSRPFTLRIIDNMGQEVITLERPLRCSSCCCPCCLQEIEIQAPPGVPIGYVIQTWHPCLPKFTIQNEKREDVLKISGPCVVCSCCGDVDFEIKSLDEQCVVGKISKHWTGILREAFTAADNFGIQFPLDLDVKMKAVMIGACFLIDFMFFESTGSQEQKSGVW |  |  |
| significant reduction | partial loss of function |  |  | Asp284: Mutant human PL scramblase with Ala substitution at Asp284 (EF-hand loop position 12) (protein, UniProt O15162 1-318, looked up, variant D284A) Phospholipid scramblase 1: MDKQNSQMNASHPETNLPVGYPPQYPPTAFQGPPGYSGYPGPQVSYPPPPAGHSGPGPAGFPVPNQPVYNQPVYNQPVGAAGVPWMPAPQPPLNCPPGLEYLSQIDQILIHQQIELLEVLTGFETNNKYEIKNSFGQRVYFAAEDTDCCTRNCCGPSRPFTLRIIDNMGQEVITLERPLRCSSCCCPCCLQEIEIQAPPGVPIGYVIQTWHPCLPKFTIQNEKREDVLKISGPCVVCSCCGDVDFEIKSLDEQCVVGKISKHWTGILREAFTDADNFGIQFPLALDVKMKAVMIGACFLIDFMFFESTGSQEQKSGVW |  |  |
|  |  | indistinguishable | virtually the same | recombinant mouse PL scramblase: Recombinant murine PL scramblase (SEQ ID NO:4), 307 residues, expressed in E. coli (protein, listed as Mus musculus) MEAPRSGTYLPAGYAPQYPPAAVQGPPEHTGRPTFQTNYQVPQSGYPGPQASYTVSTSGHEGYAATRLPIQNNQTIVLANTQWMPAPPPILNCPPGLEYLNQIDQLLIHQQVELLEVLTGFETNNKFEIKNSLGQMVYVAVEDTDCCTRNCCEASRPFTLRILDHLGNEVMTLERPLRCSSCCFPCCLQEIEIQAPPGVPIGYVTQTWHPCLPKLTLQNDLRENVLKVVGPCVACTCCSDISFEIKSLDEVTRIGLITLQWSGCVLEAFTDSDNFGIQFPLDLEVKMKAVTLGACFLIDYMFFEGCE | indistinguishable | the same activity |
